Test results reported in article PMC4742067 (PLoS ONE, 2016).

What was measured:
[1] = biological target: bradykinin B1 receptor (Homo sapiens) (UniProt P46663); assay: radioligand binding; conditions: cited from earlier work
[2] = biological target: T1, human B1R C-terminally tagged with FLAG (hB1R-FLAG) (human, UniProt P46663 1-353); assay: radioligand binding; competition of unlabeled pure peptides with 1 nM [^3H]Lys-des-Arg^9-BK on intact, adherent HEK 293a cells (24-well plates) transiently expressing hB1R-FLAG; one-site competition fit (series of Fig 2 and the Lys-des-Arg^9-BK curve of Fig 7); conditions: one partner purified
T1 construct: also called human B1R-FLAG; bradykinin B1 receptor; not shown: FLAG, C-terminal, kept
T1 sequence (looked up): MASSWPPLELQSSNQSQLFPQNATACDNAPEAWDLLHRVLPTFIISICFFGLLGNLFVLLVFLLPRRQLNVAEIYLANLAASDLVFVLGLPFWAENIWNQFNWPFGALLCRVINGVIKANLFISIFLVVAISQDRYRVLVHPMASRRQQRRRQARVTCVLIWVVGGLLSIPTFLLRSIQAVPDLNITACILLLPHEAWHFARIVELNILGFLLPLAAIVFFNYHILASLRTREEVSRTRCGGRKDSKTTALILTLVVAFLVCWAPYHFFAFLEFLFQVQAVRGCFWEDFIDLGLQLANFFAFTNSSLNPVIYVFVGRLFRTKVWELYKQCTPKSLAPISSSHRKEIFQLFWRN

[3] = biological target: T1, human B1R C-terminally tagged with FLAG …; assay: radioligand binding; competition of dilutions of a producer-cell lysate of known EGFP-S4-P1 concentration (GFP ELISA) with 1 nM [^3H]Lys-des-Arg^9-BK (bought radioligand) on intact HEK 293a cells expressing hB1R-FLAG; Ki by the Cheng-Prusoff correction; conditions: partners not purified

## Lys-des-Arg9-bradykinin (from UniProt P01042)
[1]
  Kd: 0.35 nM

B1: synthetic S3-P1 (peptide)
peptide: NGNGNGNGNGKRPPGFSPF
notes: also called (Asn-Gly)5-Lys-des-Arg^9-BK
[2]
  IC50: 75.1 nM

B2: synthetic S3-P2 (peptide)
chain: NGNGNGNGNGKRPPGFSPL
[2]
  IC50: 663 nM

B3: EGFP-S4-P1 (EGFP-(NG)15-Lys-des-Arg^9-BK) (ligand)
chain: NGNGNGNGNGNGNGNGNGNGNGNGNGNGNGKRPPGFSPF
notes: also called EGFP-(Asn-Gly)15-Lys-des-Arg^9-BK
[3]
  IC50: 25.5 nM
  Ki: 6.6 nM
